The record followed here is patent publication US20130177979A1, “METHODS AND COMPOSITIONS FOR CELL PERMEABLE STAT3 INHIBITOR” (University of Central Florida Research Foundation, Inc., priority 2010, published 2013).

Assay [1] concerns the target GpYIKTE (Stat1 pY701 peptide). Put plainly: SPR (SensiQ), His-tagged protein immobilised on HisCap chip, pTyr peptide as analyte.
Assay [2] deals with GpYLPQTV (IL-6R/gp130-derived pTyr peptide). Described as above.
The target of assay [3] is GpYVKPQ (pTyr peptide of Stat5). The assay is described as above.
For assay [4], the target named is PEpYINQS (pY1068 peptide of EGFR). The assay is described as above.
The target in assay [5] is PVpYHNQP (pY1086 peptide of EGFR). The assay is described as above.
The target of assay [6] is PpYLKTK (Stat3-derived pTyr705 peptide). The assay is described as above.
Assay [7] has as its target GpYVKPQ (pTyr peptide of Stat5). In words: SPR (SensiQ); His-tagged Stat3 SH2 domain immobilised on a HisCap sensor chip, GpYVKPQ passed over as analyte; sensorgram shown at 100 µM.
Assay [8] concerns the target 5-carboxyfluorescein-GpYLPQTV-NH2. In words: Fluorescence polarization saturation curve; 10 nM 5-carboxyfluorescein-GpYLPQTV-NH2 probe with increasing purified His-Stat3. (Fluorescence polarisation rises when a labelled molecule tumbles more slowly, as on binding a larger partner.)

One may read the Kd as a measure of binding affinity in units of concentration. Consider His-tagged Stat3 SH2 domain, for which the Kd in assay [1] was 6.6 µM; in assay [2], 0.03 µM; in assay [3] it was 5200 µM; in assay [4], 0.4 µM; in assay [5] it was 2.6 µM; in assay [6], 1.6 µM. The substance also registered a Kd in assay [7] of 5140 µM.

For orientation: EC50 (read off the curve) means the concentration needed to bring the measured effect to its halfway point. Low values mean a more potent agent, high ones a less potent agent. On to His-tagged Stat3 (full-length Stat3), for which, in assay [2], the dissociation constant Kd stood at 0.02 µM. The EC50 (read off the curve) in assay [8] is 0.1 µM.
